These results are taken from patent US20250230248A1 (TAVOTEK BIOTHERAPEUTICS HONG KONG, published 2025).

One may read the EC50 as the midpoint of the concentration-response curve.

Experiment [1] concerns the target T1, cMET extracellular domain (ECD) (UniProt P08581 25-932, limits assumed).
T1 construct: extracellular domain; Probably the same reagent as recombinant human cMET; also called cMET ECD
Description: ELISA on cMET ECD, FIG. 3A. On the technique in general: In an ELISA, binding on a coated surface is turned into a signal by an enzyme label.

For experiment [2], the target named is T1, cMET extracellular domain (ECD). The experiment in a line: blocking of HGF binding to cMET ECD, ELISA, FIG. 3F.
The target in experiment [3] is T2, EGFR on HCC827 cells (UniProt P00533 25-1210).
T2 construct: whole, on cells; human tumour cell line; also called EGFR (HCC827)
Description: blocking of EGF binding to EGFR on HCC827 cells, FACS, FIG. 8B.

For experiment [4], the target named is T2, EGFR on HCC827 cells. The experiment in a line: blocking of EGF-EGFR binding, HCC827 cells, gMFI, FIG. 2D.
The target in experiment [5] is T3, recombinant human EGFR ECD (human, UniProt P00533 25-645).
T3 construct: extracellular domain; also called EGFR extracellular domain (ECD)
The experiment in a line: ELISA on EGFR ECD, FIG. 2A.

T1 sequence (P08581 25-932 limits assumed): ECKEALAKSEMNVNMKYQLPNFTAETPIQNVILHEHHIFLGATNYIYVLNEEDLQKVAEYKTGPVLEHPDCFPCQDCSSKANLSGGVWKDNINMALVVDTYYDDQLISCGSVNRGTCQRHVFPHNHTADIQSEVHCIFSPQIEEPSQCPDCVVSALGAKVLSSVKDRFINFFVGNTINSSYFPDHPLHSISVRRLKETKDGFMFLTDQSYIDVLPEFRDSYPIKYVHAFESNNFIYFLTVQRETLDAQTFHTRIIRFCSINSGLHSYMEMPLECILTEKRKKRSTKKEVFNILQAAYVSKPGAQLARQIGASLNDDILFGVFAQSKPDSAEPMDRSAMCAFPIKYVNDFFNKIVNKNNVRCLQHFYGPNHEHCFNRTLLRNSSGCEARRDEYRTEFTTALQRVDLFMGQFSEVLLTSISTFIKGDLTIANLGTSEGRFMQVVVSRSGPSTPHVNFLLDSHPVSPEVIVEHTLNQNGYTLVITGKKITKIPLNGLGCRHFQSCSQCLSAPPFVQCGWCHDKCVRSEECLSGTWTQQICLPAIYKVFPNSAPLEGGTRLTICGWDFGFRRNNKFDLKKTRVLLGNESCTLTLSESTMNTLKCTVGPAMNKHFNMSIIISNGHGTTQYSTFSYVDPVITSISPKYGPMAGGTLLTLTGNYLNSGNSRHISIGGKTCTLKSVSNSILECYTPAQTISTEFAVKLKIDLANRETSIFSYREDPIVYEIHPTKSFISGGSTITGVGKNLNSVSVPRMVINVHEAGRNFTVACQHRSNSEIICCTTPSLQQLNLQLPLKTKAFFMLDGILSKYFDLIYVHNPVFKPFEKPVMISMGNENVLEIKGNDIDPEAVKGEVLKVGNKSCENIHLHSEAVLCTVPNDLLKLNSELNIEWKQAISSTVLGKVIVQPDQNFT

B1: Onartuzumab (antibody, V domains shown)
VH: EVQLVESGGGLVQPGGSLRLSCAASGYTFTSYWLHWVRQAPGKGLEWVGMIDPSNSDTRFNPNFKDRFTISADTSKNTAYLQMNSLRAEDTAVYYCATYRSYVTPLDYWGQGTLVTVSS
VL: DIQMTQSPSSLSASVGDRVTITCKSSQSLLYTSSQKNYLAWYQQKPGKAPKLLIYWASTRESGVPSRFSGSGSGTDFTLTISSLQPEDFATYYCQQYYAYPWTFGQGTKVEIK
notes: also called cMET OVH0 / cMET OVL0
Turning to B1, the values for the EC50 in experiment [1] and in experiment [2] were about 0.025 µg/mL and about 0.093 µg/mL, respectively.

B2: EV1 (antibody, V domains shown)
VH: QVQLVQSGAEVKKPGASVKVSCKASGYTFTDYYMHWVRQAPGQGLEWMGRVNPNRGGTTYAQKFQGRVTMTTDTSISTAYMELSRLRSDDTAVYYCARANWLDYWGQGTTVTVSS
VL: DIQMTQSPSSLSASVGDRVTITCRVSQSVSSIYLHWYQQKPGKAPKLLIYSTSNLQSGVPSRFSGSGSGTDFTLTISSLQPEDFATYYCQVYSGYPLTFGGGTKVEIK
notes: anti-cMET mAb hit; also called cMET EVH1 / cMET EVL1
Turning to B2, the EC50 in experiment [1] was about 0.0175 µg/mL; in experiment [2], about 0.093 µg/mL.

B3: 7D VH6×EV1 bispecific antibody (bispecific antibody, not shown: a dimerising Fc or GST)
chain: not shown
VH: B2 VH
VL: B2 VL
notes: also called EGFR×cMet hit; candidate BsAb
Take B3: the EC50 in experiment [3] is about 0.63 nM.

B4: 7D VH4×EV1 bispecific antibody (bispecific antibody, not shown: a dimerising Fc or GST)
chain: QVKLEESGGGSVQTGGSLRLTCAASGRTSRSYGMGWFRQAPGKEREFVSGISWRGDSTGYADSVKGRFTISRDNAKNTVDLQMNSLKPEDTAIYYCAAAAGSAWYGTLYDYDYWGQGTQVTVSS
VH: B2 VH
VL: B2 VL
notes: as for B3
Molecule B4 displayed an EC50 in experiment [3] of about 0.81 nM.

B5: 7D VH1 (VHH)
VHH: EVQLVESGGGVVRPGGSLRLSCAASGRTSRSYGMGWFRQAPGKEREFVSGISWRGDSTGYADSVKGRFTISRDNAKNSVDLQMNSLRAEDTALYYCAAAAGSAWYGTLYEYDYWGQGTQVTVSS
notes: also called 7D VH hit; EGFR VHO mAb
As to B5, the EC50 in experiment [4] was about 0.025 µg/mL.

B6: TV1 (antibody, V domains shown)
VH: QVQLVQSGAEVKKPGSSVKVSCKASGYIFTAYTMHWVRQAPGQGLEWMGGIKPNNGLANYAQKFQGRVTITADESTSTAYMELSSLRSEDTAVYYCARSEITTEFDYWGQGTLVTVSS
VL: DIVMTQSPDSLAVSLGERATINCKSSESVDSYANSFLHWYQQKPGQPPKLLIYRASTRESGVPDRFSGSGSGTDFTLTISSLQAEDVAVYYCQQSKEDPLTFGGGTKVEIK
notes: anti-cMET mAb hit; also called cMET TVH1 / cMET TVL0
Take B6: the EC50 in experiment [1] is about 0.0185 µg/mL; in experiment [2] it was about 0.122 µg/mL.

B7: TV4 (antibody, V domains shown)
VH: QVQLQESGPGLVKPSGTLSLTCAVSGYIFTAYTMHWVRQPPGKGLEWIGGIKPNNGLANYNPSLKSRATLSVDKSKNQASMKLSSVTAADTAVYYCARSEITTEFDYWGQGTLVTVSS
VL: DIQMTQSPSSLSASVGDRVTITCRASESVDSYANSFMHWYQQKPGKAPKLLIYRASNLESGVPSRFSGSGSGTDFTLTISSLQPEDFATYYCQQSKEDPLTFGGGTKVEIK
notes: anti-cMET mAb hit; also called cMET TVH2 / cMET TVL2
Regarding B7, the figures for the EC50 in experiment [1] and in experiment [2] were about 0.018 µg/mL and about 0.108 µg/mL, respectively.

B8: 7D VH6×TV4 bispecific antibody (bispecific antibody, not shown: a dimerising Fc or GST)
chain: not shown
VH: B7 VH
VL: B7 VL
notes: as for B3
For the molecule B8, in experiment [3], the concentration for a half-maximal effect (EC50) is about 0.63 nM.

B9: 7D VH4×TV4 bispecific antibody (bispecific antibody, not shown: a dimerising Fc or GST)
chain: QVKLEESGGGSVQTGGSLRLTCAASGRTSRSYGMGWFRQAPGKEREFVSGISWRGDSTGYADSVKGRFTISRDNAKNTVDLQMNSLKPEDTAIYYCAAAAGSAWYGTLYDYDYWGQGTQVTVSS
VH: B7 VH
VL: B7 VL
notes: as for B3
Take B9: the concentration giving a half-maximal response (EC50) in experiment [3] is about 0.93 nM.

B10: gp120 mAb (antibody, V domains shown)
VH: QVQLVQSGAEVKKPGASVKVSCQASGYRFSNFVIHWVRQAPGQRFEWMGWINPYNGNKEFSAKFQDRVTFTADTSANTAYMELRSLRSADTAVYYCARVGPYSWDDSPQDNYYMDVWGKGTTVIVSS
VL: EIVLTQSPGTLSLSPGERATFSCRSSHSIRSRRVAWYQHKPGQAPRLVIHGVSNRASGISDRFSGSGSGTDFTLTITRVEPEDFALYYCQVYGASSYTFGQGTKLERK
notes: also called anti-gp120 mAb v12; null control Ab
In the case of B10, the binding result in experiment [5] is “no binding”.
